# What was measured:
# [1] = molecular target: Recombinant hamster MIF (Syrian golden hamster macrophage migration inhibitory factor) (Syrian golden hamster (Mesocricetus auratus)); experiment: crystal structure
# [2] = molecular target: Recombinant hamster MIF (Syrian golden hamster macrophage migration inhibitory factor) (Syrian golden hamster (Mesocricetus auratus)); experiment: SEC
substance,measurement,setting,value
Recombinant hamster MIF (Syrian golden hamster macrophage migration inhibitory factor) (from UniProt A0A140EDM8 1-115) (natural protein),stoichiometry N,[1],3
same,stoichiometry N,[2],3

# Reference: doi:10.1101/449629
